Results: publication PMC4125498 (Nature structural & molecular biology, 2014)
No end group written: not given here.

T1: His6-MBP-TEV-Cep192 58mer (201–258) (human, UniProt Q8TEP8 201-258)
T1 sequence (looked up): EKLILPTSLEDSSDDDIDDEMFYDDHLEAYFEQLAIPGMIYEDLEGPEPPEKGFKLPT

T2: GST-Plk4 C (580–970) (human, UniProt O00444 580-970)
T2 sequence (looked up): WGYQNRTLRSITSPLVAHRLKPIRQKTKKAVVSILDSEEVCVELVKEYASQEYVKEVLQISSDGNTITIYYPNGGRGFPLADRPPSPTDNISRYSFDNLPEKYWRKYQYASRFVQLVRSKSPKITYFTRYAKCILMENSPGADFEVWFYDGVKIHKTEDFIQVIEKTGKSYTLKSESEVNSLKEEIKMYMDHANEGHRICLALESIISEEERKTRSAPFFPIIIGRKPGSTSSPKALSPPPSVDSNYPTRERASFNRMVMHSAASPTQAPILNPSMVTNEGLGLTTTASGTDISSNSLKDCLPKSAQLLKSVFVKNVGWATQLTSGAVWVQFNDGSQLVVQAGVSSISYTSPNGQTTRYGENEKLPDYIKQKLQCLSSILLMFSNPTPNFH

B1: human Plk4 cryptic polo box (CPB, residues 580–808), His6-MBP tag removed (domain or fragment, UniProt O00444 580-808, looked up)
chain: WGYQNRTLRSITSPLVAHRLKPIRQKTKKAVVSILDSEEVCVELVKEYASQEYVKEVLQISSDGNTITIYYPNGGRGFPLADRPPSPTDNISRYSFDNLPEKYWRKYQYASRFVQLVRSKSPKITYFTRYAKCILMENSPGADFEVWFYDGVKIHKTEDFIQVIEKTGKSYTLKSESEVNSLKEEIKMYMDHANEGHRICLALESIISEEERKTRSAPFFPIIIGRKPG
B2: Alexa 488-conjugated MBP-Cep152-60mer (domain or fragment, human, UniProt O94986 1-60, looked up)
chain: MSLDFGSVALPVQNEDEEYDEEDYEREKELQQLLTDLPHDMLDDDLSSPELQYSDCSEDG
modifications: also: Alexa Fluor 488 conjugated, sites not given here, MBP fusion
B3: Alexa 488-conjugated MBP-Cep192-58mer (domain or fragment, human, UniProt Q8TEP8 201-258, looked up)
chain: T1 sequence (looked up)
modifications: also: Alexa Fluor 488 conjugated, sites not given here, MBP fusion
B4: His6-MBP-TEV-Cep152 60mer (1–60) (domain or fragment, human, UniProt O94986 1-60, looked up)
chain: B2 chain
B5: His6-MBP-TEV-Cep152 (1–217) (domain or fragment, human, UniProt O94986 1-217, looked up)
chain: MSLDFGSVALPVQNEDEEYDEEDYEREKELQQLLTDLPHDMLDDDLSSPELQYSDCSEDGTDGQPHHPEQLEMSWNEQMLPKSQSVNGYNEIQSLYAGEKCGNVWEENRSKTEDRHPVYHPEEGGDEGGSGYSPPSKCEQTDLYHLPENFRPYTNGQKQEFNNQATNVIKFSDPQWNHFQGPSCQGLEPYNKVTYKPYQSSAQNNGSPAQEITGSDT

How the values were obtained:
[1] = target: T1, His6-MBP-TEV-Cep192 58mer (201–258); test: pull-down
[2] = target: B1; test: fluorescence polarisation
[3] = target: B1; test: fluorescence polarisation; remark: listed apart in the source
GST-Plk4 C (580–970) = target: T2, GST-Plk4 C (580–970); test: pull-down

B1 was tested, and the “stoichiometry N” value [1] was ~2 MBP-Cep192-58mer per CPB dimer.

B2 showed a Kd [2] of 0.032 µM.

With B3 the Kd [2] was 0.177 µM.

B4 showed an IC50 [3] of 0.064 µM.

B5: binds (GST-Plk4 C (580–970)).
